These results are taken from US20100279409A1, “METHOD FOR MODIFYING CELLUAR IMMUNE RESONSE BY MODULATING ACTIVIN ACTIVITY” (priority 2007, published 2010).

Holding throughout (format): cell-based, human
The subject of one test is immature MoDCs. Put plainly: Activin-A ELISA of CD40L-stimulated MoDCs with follistatin. Conditions: CD40L 2 μg/ml. The method, then: The early autocrine/paracrine release of activin-A by MoDCs was viewed as a possible potentiating feedback loop to further activin-A production. To test this, immature MoDCs were cultured with 2 μg/ml of CD40L, together with increasing concentrations of follistatin (0-400 ng/ml). Supernatants were collected over a 6 hour period and activin-A was qualified in a standard ELISA.
On the technique in general: ELISA stands for enzyme-linked immunosorbent assay.

Test [1] deals with MoDCs. The test can be described thus: IL-6 and cytokine ELISA of stimulated MoDCs with follistatin. Conditions: for IL-6 production: follistatin 0, 20, 100 ng/ml. On the procedure: Prior studies had shown that, in an in vivo LPS challenge model, activin-A is released into the circulatory system rapidly, and can be detected prior to IL-6, and just prior to TNF-α release. […] This was tested by combining MoDCs with trimeric CD40L, or LPS, at a fixed concentration, together with varying concentrations of follistatin (0, 20, and 100 ng/ml) MoDCs were combined with GM-CSF and IL-4 as a control. Supernatants were collected after 4 hours, 24 hours, and 48 hours of culture, and then assayed for IL-6 via a standard ELISA.
Further experiments were then carried out, using trimeric CD40L or concentrations of LPS and follistatin that were even higher (1 ng/ml-150 ng/ml for LPS, and 400 ng/ml for follistatin).

The subject of test [2] is MoDCs. Put plainly: qRT-PCR of IL-6 mRNA in MoDCs with follistatin. Conditions: follistatin 400 ng/ml. The method, then: When qRT-PCR was carried out, a 15 fold increase in IL-6 mRNA expression was observed 2 hours after MoDC stimulation and the 400 ng/ml dose of follistatin, with a peak at 4 hours, (30 fold), with a decrease over 6-24 hours.
Test [3] concerns MoDCs. The test can be described thus: IL-10 secretion and mRNA in MoDCs with follistatin. From the text: Supernatants were screened, via standard ELISAs, for a large array of cytokines and chemokines, including pleiotropic IL-10.
In test [4] the test system is MoDCs. The test can be described thus: IL-12p35 expression, IL-12p70 and TNF-α secretion by CD40L-stimulated MoDCs. The method, then:
In view of this, the experiments were extended to investigate the impact, if any on IL-12p70, a potent TH1 cytokine, and pro-inflammatory TNF-α. The experiments were carried out in the same way as the prior experiments were.

In a further test the test system is MoDC. Put plainly: Chemokine secretion by CD40L-stimulated MoDCs with follistatin. Conditions: 24 hours, increasing follistatin. On the procedure: MoDC culture supernatants were screened following 24 hours of culture, using controls, and increasing concentration of follistatin, as described supra. Assays were carried out, following standard methods, for IL-12p70, TNF-α, IL-8, IP-10, RANTES, and MCP-1.

The subject of test [5] is CD8+ T cells co-cultured with MoDCs. Conditions: follistatin 400 ng/ml, nine days, IFN-γ secretion and CD107a expression.
Test [6] deals with MoDCs co-cultured with NK cells. Put plainly: IFN-γ production in MoDC and NK cell co-culture with follistatin. The method, then: The dendritic cells were obtained by culturing CD14^+ monocytes with GM-CSF and IL-4, for 6-7 days, which are standard culture conditions. A sample of 5×10^4 MoDCs were co-cultured with 1×10^5 NK cells, either with or without 400 ng/ml follistatin. As controls, samples of each type of cell were cultured individually.
IFN-γ production was measured, as described supra.
To test this, 5×10^4 immature MoDCs were cultured, in 96 well-plates, in standard media supplemented with 20 U/ml IL-2 and 20 ng/ml GM-CSF only, or with the addition of 1×10^5 autologous NK cells. In addition, the cells were stimulated with IL-12 and poly I:C. In addition, 400 ng/ml of follistatin was added to cultures in order to neutralize activin-A.
After 24 hours, supernatants were collected, and assayed for IFNγ via a standard ELISA.

The mark [7] stands for this setting: CD40L-stimulated MoDCs with follistatin.

B1: follistatin (protein, UniProt P19883 30-344, looked up)
Follistatin: GNCWLRQAKNGRCQVLYKTELSKEECCSTGRLSTSWTEEDVNDNTLFKWMIFNGGAPNCIPCKETCENVDCGPGKKCRMNKKNKPRCVCAPDCSNITWKGPVCGLDGKTYRNECALLKARCKEQPELEVQYQGRCKKTCRDVFCPGSSTCVVDQTNNAYCVTCNRICPEPASSEQYLCGNDGVTYSSACHLRKATCLLGRSIGLAYEGKCIKAKSCEDIQCTGGKKCLWDFKVGRGRCSLCDELCPDSKSDEPVCASDNATYASECAMKEAACSSGVLLEVKHSGSCNSISEDTEEEEEDEDQDYSFPISSILEW
In the case of B1, the activin-A production result is “dose dependent decreases in activin-A production” in the test on immature MoDCs (follistatin 0-400 ng/ml, first 2-4 hours) and “unable to abrogate the level of activin-A production” with immature MoDCs (follistatin 400 ng/ml, at 6 hours). The IL-6 production result is given as “as follistatin concentration increased, so too did IL-6 production” in the test on MoDCs [1] (CD40L-stimulated MoDCs) and “did not influence its production” in the test with MoDCs [1] (LPS-stimulated MoDCs). In the test with MoDCs [1] (LPS 1 ng/ml-150 ng/ml, follistatin 400 ng/ml), the “LPS mediated IL-6 production” value is reported as “not LPS mediated IL-6 production, at any dose”. For the same molecule, the “CD40L mediated production of IL-6” value with MoDCs [1] (follistatin 400 ng/ml) was “dramatically enhanced”. Moreover, the MoDC cytokine production result with MoDCs [1] (follistatin alone, no other stimulus) is reported as “did not induce MoDC cytokine production”. Also, the “increase in IL-6 mRNA expression” value with MoDCs [2] (2 hours after MoDC stimulation) is 15 fold; with MoDCs [2] (peak at 4 hours), 30 fold. Also, the “IL-10 mRNA expression” value in the test with MoDCs [3] (CD40L-stimulated MoDCs with follistatin, peak at 4 hours) was “increased IL-10 mRNA expression”. Besides, the “CD40L mediated IL-10 secretion” value in the test with MoDCs [3] (MoDCs with follistatin) is given as “enhanced IL-10 secretion by the MoDCs in a dose dependent manner”. Further, the “E. coli mediated IL-10 secretion” value with MoDCs [3] (MoDCs with follistatin) is given as “did not impact”. For the same molecule, the IL-12p70 protein secretion entry in the test with MoDCs [4] (setting [7]) was “dose dependent enhancement”. For the same molecule, in the test with MoDCs [4] (setting [7]), the TNF-α secretion entry is given as “dose dependent enhancement peaking at 24 hours”. For the same molecule, the “IL-12p35 expression vs CD40L alone” value with MoDCs [4] (at 24 hours, CD40L plus follistatin) is given as “at least 15 fold”. For the same molecule, in the test on MoDCs [4] (follistatin alone, without any other stimulus), the IL-12p70 secretion result is reported as “did not induce IL-12p70 secretion”. Besides, in the test with MoDC, the IL-8 production entry is on record as “substantially enhanced”. For the same molecule, the MCP-1 production entry in the test on MoDC is “substantially enhanced”. Further, the RANTES production entry with MoDC is “substantially enhanced”. In addition, the “percentage of influenza matrix specific CD8+ T cells displaying effector function” value in test [5] was “significantly increased”. Also, in test [5], the “total number of influenza matrix specific CD8+ T cells displaying effector function” value is on record as “significantly increased”. Moreover, the IFN-γ production result in test [6] (MoDCs co-cultured with NK cells, follistatin 400 ng/ml) was “increased markedly”; in test [6] (NK cells alone stimulated with cytokines) it was “had no impact”; in test [6] (immature MoDCs and autologous NK cells, IL-12 and poly I:C, follistatin 400 ng/ml, 24 hours), “significant increases in IFN-γ production”.
